# Tested on: Escherichia coli TOP10
# Test: shrunken log2 fold change of peptide-encoding DNA abundance (4.5 h post-induction vs induction); higher = less antimicrobial activity (less host growth inhibition)
# Settings: time post-induction: 4.5 h; library: site-saturation at positions 5, 18, 19, 20
# 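Further: peptides expressed intracellularly from a pBAD plasmid library in pooled LB shake-flask culture, induced with 0.3% L-arabinose, DNA abundance read by NGS, three biological replicates, DESeq2 with apeglm shrinkage.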
row,Sequence,shrunken log2 fold change
1,RRIRQRPPRLPRPRPRPVCDPRP,0.0934
2,RRIRERPPRLPRPRPRPNAEPRP,0.103
3,RRIRGRPPRLPRPRPRPMMQPRP,1
4,RRIRDRPPRLPRPRPRPPVHPRP,0.105
5,RRIRDRPPRLPRPRPRPGRDPRP,0.193
6,RRIRHRPPRLPRPRPRPLMKPRP,-0.581
7,RRIRYRPPRLPRPRPRPYCDPRP,-0.379
8,RRIRKRPPRLPRPRPRPRMGPRP,0.149
9,RRIRYRPPRLPRPRPRPDDYPRP,0.0219
10,RRIRRRPPRLPRPRPRPTEHPRP,0.0963
11,RRIRQRPPRLPRPRPRPKSMPRP,-0.179
12,RRIRIRPPRLPRPRPRPEYSPRP,-0.119
13,RRIRVRPPRLPRPRPRPTMLPRP,-0.205
14,RRIRGRPPRLPRPRPRPSPMPRP,0.474
15,RRIRIRPPRLPRPRPRPQGKPRP,-0.385
16,RRIRTRPPRLPRPRPRPAHGPRP,0.00693
17,RRIRYRPPRLPRPRPRPMFDPRP,-1.4
18,RRIRERPPRLPRPRPRPYQEPRP,-0.255
19,RRIRSRPPRLPRPRPRPAAIPRP,2.36
20,RRIRERPPRLPRPRPRPSHPPRP,-0.481
21,RRIRMRPPRLPRPRPRPSFHPRP,-0.432
22,RRIRKRPPRLPRPRPRPDGHPRP,-0.0242

row,Sequence,shrunken log2 fold change
1,RRIRFRPPRLPRPRPRPEICPRP,0.172
2,RRIRARPPRLPRPRPRPKMNPRP,0.0254
3,RRIRNRPPRLPRPRPRPEQIPRP,-0.0196
4,RRIRDRPPRLPRPRPRPGYNPRP,-0.0937
5,RRIRHRPPRLPRPRPRPMGPPRP,0.0818
6,RRIRDRPPRLPRPRPRPTYGPRP,-0.257
7,RRIRERPPRLPRPRPRPGCTPRP,-0.169
8,RRIRYRPPRLPRPRPRPLTVPRP,-0.146
9,RRIRKRPPRLPRPRPRPNICPRP,-0.0826
10,RRIRSRPPRLPRPRPRPKPFPRP,-0.646
11,RRIRTRPPRLPRPRPRPDDAPRP,-0.0135
12,RRIRMRPPRLPRPRPRPYIMPRP,-0.12
13,RRIRNRPPRLPRPRPRPYPHPRP,-0.0269
14,RRIRMRPPRLPRPRPRPGYEPRP,0.247
15,RRIRCRPPRLPRPRPRPQYNPRP,-1.36
16,RRIRKRPPRLPRPRPRPFTLPRP,0.0269
17,RRIRCRPPRLPRPRPRPDMEPRP,0.000584
18,RRIRPRPPRLPRPRPRPQSEPRP,-0.381
19,RRIRNRPPRLPRPRPRPIFNPRP,-0.302
20,RRIRGRPPRLPRPRPRPNIKPRP,0.136
21,RRIRGRPPRLPRPRPRPIVMPRP,-0.0978
22,RRIRTRPPRLPRPRPRPHRWPRP,-0.254

row,Sequence,shrunken log2 fold change
1,RRIRLRPPRLPRPRPRPAFPPRP,0.0371
2,RRIRYRPPRLPRPRPRPGLGPRP,-0.0488
3,RRIRIRPPRLPRPRPRPGPGPRP,0.385
4,RRIRHRPPRLPRPRPRPDAGPRP,-0.0143
5,RRIRFRPPRLPRPRPRPNKMPRP,-0.231
6,RRIRRRPPRLPRPRPRPPQEPRP,0.405
7,RRIRVRPPRLPRPRPRPFWCPRP,-0.121
8,RRIRGRPPRLPRPRPRPELEPRP,2.14
9,RRIRQRPPRLPRPRPRPSMCPRP,-0.194
10,RRIRIRPPRLPRPRPRPPYYPRP,-0.827
11,RRIRARPPRLPRPRPRPITTPRP,0.1
12,RRIRQRPPRLPRPRPRPAIIPRP,-0.0528
13,RRIRNRPPRLPRPRPRPVTSPRP,-0.469
14,RRIRNRPPRLPRPRPRPFLWPRP,-0.199
15,RRIRERPPRLPRPRPRPGIMPRP,-0.738
16,RRIRRRPPRLPRPRPRPPRPPRP,1.01
17,RRIRGRPPRLPRPRPRPSKSPRP,-0.0596
18,RRIRNRPPRLPRPRPRPSYEPRP,-0.999
19,RRIRHRPPRLPRPRPRPNYCPRP,-0.0948
20,RRIRNRPPRLPRPRPRPCIGPRP,0.00845
21,RRIRWRPPRLPRPRPRPSCNPRP,-0.0978
22,RRIRRRPPRLPRPRPRPQTIPRP,0.272

row,Sequence,shrunken log2 fold change
1,RRIRCRPPRLPRPRPRPIIQPRP,-0.465
2,RRIRDRPPRLPRPRPRPIEWPRP,0.015
3,RRIRFRPPRLPRPRPRPSSEPRP,-0.134
4,RRIRSRPPRLPRPRPRPGPIPRP,0.298
5,RRIRYRPPRLPRPRPRPAKVPRP,0.00738
6,RRIRCRPPRLPRPRPRPFETPRP,-0.0151
7,RRIRARPPRLPRPRPRPEESPRP,-0.024
8,RRIRERPPRLPRPRPRPPRGPRP,0.519
9,RRIRARPPRLPRPRPRPMHVPRP,-0.0248
10,RRIRRRPPRLPRPRPRPPKNPRP,0.671
11,RRIRRRPPRLPRPRPRPVGVPRP,0.705
12,RRIRYRPPRLPRPRPRPDPCPRP,-0.0185
13,RRIRARPPRLPRPRPRPNCAPRP,0.567
14,RRIRDRPPRLPRPRPRPETIPRP,0.17
15,RRIRRRPPRLPRPRPRPMYMPRP,-0.212
16,RRIRWRPPRLPRPRPRPWWIPRP,0.109
17,RRIRWRPPRLPRPRPRPQDVPRP,-0.0384
18,RRIRPRPPRLPRPRPRPLHSPRP,-0.207
19,RRIRARPPRLPRPRPRPETHPRP,0.56
20,RRIRCRPPRLPRPRPRPFTLPRP,-0.048
21,RRIRCRPPRLPRPRPRPLIKPRP,-0.311
22,RRIRMRPPRLPRPRPRPGFIPRP,0.192

row,Sequence,shrunken log2 fold change
1,RRIRCRPPRLPRPRPRPVKQPRP,-0.222
2,RRIRPRPPRLPRPRPRPYPSPRP,-0.65
3,RRIRIRPPRLPRPRPRPEECPRP,0.0287
4,RRIRVRPPRLPRPRPRPIHRPRP,-0.3
5,RRIRRRPPRLPRPRPRPRYFPRP,0.502
6,RRIRIRPPRLPRPRPRPVVAPRP,-0.0606
7,RRIRDRPPRLPRPRPRPRSSPRP,-0.0289
8,RRIRIRPPRLPRPRPRPNEAPRP,0.135
9,RRIRERPPRLPRPRPRPPDEPRP,-0.0361
10,RRIRWRPPRLPRPRPRPQVNPRP,0.141
11,RRIRKRPPRLPRPRPRPWSYPRP,-0.528
12,RRIRDRPPRLPRPRPRPFHNPRP,-0.271
13,RRIRLRPPRLPRPRPRPRRHPRP,0.214
14,RRIRFRPPRLPRPRPRPAVEPRP,0.509
15,RRIRTRPPRLPRPRPRPVTEPRP,0.0394
16,RRIRHRPPRLPRPRPRPSMWPRP,-0.095
17,RRIRVRPPRLPRPRPRPPFEPRP,0.26
18,RRIRTRPPRLPRPRPRPMAKPRP,0.0153
19,RRIRWRPPRLPRPRPRPFCMPRP,-0.218
20,RRIRERPPRLPRPRPRPVAYPRP,-0.178
21,RRIRGRPPRLPRPRPRPHKDPRP,0.11

# From the supplement of paper PMC9112550, “Optimization of the antimicrobial peptide Bac7 by deep mutational scanning” (BMC Biology, 2022)
